In the supplement of paper PMC9170038:

test system: K4 kissing-loop RNA reporter; assay: apparent KD of K4 kissing-loop reporter; higher = weaker reporter binding; conditions: Eterna round: R107; input ligand: theophylline 20 uM
Method: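 RNA-MaP round R107: designed RNA switches with theophylline, tryptophan, arginine or FMN aptamers are transcribed on-chip within common flanks. They are titrated with a labelled K4 kissing-loop RNA reporter in RNA-MaP buffer (100 mM Tris pH 7.5, 80 mM KCl, 4 mM MgCl2), without ligand or with the indicated ligand. Median apparent KD per design.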
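Note: bound reporter read as fluorescence of individual clusters on recovered sequencing chips by microscopy, with normalized cluster intensities fitted with a binding model.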

Sequence	apparent KD of K4 kissing-loop reporter
AAAAUAAGCCAGUGAUGUUGGUAUGCAGAUACCAGCGACGAAAGUCGCCCUUGGCAGCUGUGGACGUACAAAAUAAGUACGUCCU	331 nM
GGUCGAGUGAUGUUCGAUGUAGUGCAUUCAGAGGAUAUAGGAUGGGCUAGAAGGCUGAAAGGUGCUUCGAGUGAUGUUCGAGGAU [Exclusion FMN A GF 3]	115 nM
UUGUUUGGUUGAGAGGUUGGGCGAGAUGAUACCAGUAGAUAAGAAUACCCUUGGCAGCAUAAGAAAGAUAUAGUGAUGUUGUAUA [SSTheophA.N]	525 nM
AAGCAGUUCUCAAAGAGUACUGCAGGACAGCAGGAUAUAGUGAUGUUGAGAAGGGCUGUCCCGUCUGCAUGAAACAUGCAGACGA [Simply curious]	1290 nM
AAGCAGUCAGGAUCGAAGAUCCUGCAAUACCGAGGACCGGUACGGCCGCCACUCGGAGUGAUGUUCCGAAGACUGCAAAAUAAAA [#SwitchBubble 7]	57.9 nM
GGUAGCAUGGCGGCCGCCACUGAGGCCCUAUGCGAGUCCUCUACAACCUAGUGAUGUUAGGCGUCCAGGACCGGGCCAUGCUACC	58.4 nM
CGAUACGGAAAUACGUGUCUCUAUUCAGAAGGAGCGUGGUAGUACACAGGUAGGUCGCUGAAUUUUAAACUAGUGAUGUUAGUCU [JR_SSArginiA_Sub005]	292 nM
UAUCUAUGCUCGGCCGCCACUAGGACCGGGUAGUCUCUAGUGAUGUUAGUCUCUACGGCCGCCACUAGGACCGGGAGUGUAGAUA [KL-SSTryp-B16 #DoubleAptamer]	225 nM
CGCCGUAAGGCGGUCGCUCCCACUCCGGAAGGAGCGCCCGGAAGGGCAGGUAGGUCGCCGGAGUGAUGUUCCGGUGGAGGGACCG [#2 Exclusion - Arginine A Attempt #9 (Inspired by Omei)]	270 nM
UCGCCGCUCACGGCCGCCACUAAGCCCAAGACCAGAGAGUGAUGUUCUAUCCACGUUUCAAUUUUUAGGACCGGGUGAAAGGCGA [theeternabot_sameState_KL_Trp_B_14]	625 nM
UGUGUUGUUUUGAUGUUUGGUGUUGCAUGGCAGGAUAUCGUAGAGGCGAGAAGGGCUUGUGAGCGGUAUGAGUGAUGUUUGUAGG [bbgbmullin]	400 nM

same assay, conditions: Eterna round: R107; input ligand: tryptophan 2.4 mM

Sequence	apparent KD of K4 kissing-loop reporter
GGCGGCUGCGCGGAAGCGCAGCCGGCCGAUACCAGCGCGACGGCGCGCCCUUGGCAGCGGCGCCGAGUGAUGUUCGGCCUGCCGU [#2 Same State - Theophylline A Attempt #21 (HarryS)]	117 nM
UGUGAUGUGUAGUGUAAUGUUUUGCGGGAUACCAGAGUCUUUUUAUUCCCUUGGCAGCUUGAGUGAUGUUUGAUGCUGUUCUUGU [llmdmullin]	326 nM
AACUGUCAAGGACAACAUUACUGAGGUGAUACCAGGUUUGAGAGGAUCCCUUGGCAGCACCAACUUGCAGUGAUGUUGCAAGUAA [BrourdMod 15 - Jieux - Exclusion - Theophylline A]	243 nM
CGCAGUGAUGUUGCGAGUAGCUACAGGGAAGGAGCGUGCUAGAGCACAGGUAGGUCGCCCACGCAGUGAUGUUGUGUUAAAGGGU [Exclusion Arginine A GF 12]	117 nM
UAUAUAGUGACGGCCGCCACUAUUGUGAUGUUAUUGUUAGAGUGAUGUUUUGUUGUUUAAUUUUGUAGGACCGGGUUAUAUGUUA [xxzsmullin]	543 nM
CCACAAUAUGGAAGGAGCGCCAGUGAUGUUGGUGCUUGCUUUAGGUAAGACCGGCCUAUUUGGCAGGUAGGUCGCCAUAUUCAAC [Ageat]	97.2 nM
GUGGCGGGCCAAGGAUAUAUUUUGGAGUGAUGUUGUUCAUUUAUUUGAGCUAGUGAUGUUGGUCGAAUAGAAGGUGGCCCGCCAC [whbob_Ex_FMNB__2th220]	45.8 nM
AAGCCAUACUCGGCCGCCACUUACUUCGUUGCAGUGAUGUUGCACACGAAUCCGUCAUAGCAAAUAAGGACCGGGAGAUAUACCG [theeternabot_exclusion_KL_Trp_B_19]	86.3 nM
CCAGAAUGAUGAGGAUGAUAAAUUACUGAAGGAGCGCAUAUAGUUGCAGGUAGGUCGCGGUGAAUAAGUAUAGUGAUGUUAUACC [SSArgA.Ab]	341 nM
GCUAUGGUAGGAAGGAGCGCUUGCUCGGUCAUAAGAGUGAUGUUCGAGACCGAGCAUUUAUAGCAGGUAGGUCGCCUACUAUAGC [Arginine B K4 7]	250 nM
CCAGGAUGAUGAGGAUGAUAAAUUACUGAAGGAGCGCAUAUAGUUGCAGGUAGGUCGCGGUGAAUAAGUAUAGUGAUGUUAUACC [SSArgA.Aa]	301 nM
UCUCCAAAGUCGGCCGCCACUCCGGGCCCUAUAAAUGGGCGCAGUGAUGUUGCGGCUAGGCCUCUGAGGACCGGGACUUUGUAGA [Estiorquin]	164 nM
UGAUUGGCGAAAGUAGUGAUGUUACGAAUAUAGGAUAUUAGAGGAAUAAGAAGGAUAAAGGAGAAAUAGGUAAAUUGUUGGUUGG [whbob_SS_FMNA__2th169]	93.4 nM
ACGUCACGUAUACUCGUGGUUUCGAUCGAUACCAGUAGCGAGAGUUACCCUUGGCAGCGACAUGAGUGAUGUUCAUGUGCGAAGA [KL-XTheo-A3 #analogue]	111 nM
GGCGCAGUGAUGUUGCGGGCCGAGAGUGAUACCAGCCGUAUUUGUGGCCCUUGGCAGCGCAGAACCAGUGAUGUUGGUUACUUGG [Same State Theophylline A GF 22]	421 nM
AAAAUAAAGGAGUGAUGUUCCAUAACGGAUACCAGCCACGAAAGUGGCCCUUGGCAGCUGUGCCAGUGGACGAAUAACGUCCACA [#OpenEnded 6 #StaticStem #K4Early]	164 nM
UGUCAUUGGUCGGCCGCCACUAGGACCGGGUUUUGCCUAGUGAUGUUAGUAUGAACGGCCGCCACUAGGACCGGGACCGAUGACU [KL-SSTryp-B26 #DoubleAptamer]	105 nM
UCGCCCGAUGGAGAUACCAGCAGUUGUGCAGUGAUGUUGCACAAGUACUCGCUCCAUUGCUGCCCUUGGCAGCUCCCGGCAAACA [Enraed]	89.3 nM
AUAUUACUAUACGAUACCAGCCCUAACACUAGUGACGCGGUAAUAGUGAUGUUGUAACCCGGCCCUUGGCAGCGUAAUCAUGGAA [theeternabot_sameState_KL_Theo_B_7]	475 nM
UCUGGAGUAUAUGAUACCAGCAGUGAGAGACAGGAAGUAUAGUGAUGUUAUAUGAGAGAAUGCCCUUGGCAGCGUGUGCGGUGGC [SSTheophylB.Q]	58.3 nM
GCACUACAAUAAGGAUAUCAUAAAAUGGAGAGCGAGUGAUGUUCGCAGAGACACCUAUUUUUCCUAUGAGAAGGUAUUAACGCCG [theeternabot_sameState_KL_FMN_B_40]	93.2 nM
UUAGUCUAGAGAGGAUAUCAGUGAUGUUGAUAUCAAGAUCUAAGAUAGAAUUCUAUCUUAGAUCAAUGAGAAGGCUCUAGACAUU [AK1.1 Exc FMN B]	147 nM

Sequence	apparent KD of K4 kissing-loop reporter
GUGUCCUAGUCGGCCGCCACUGGGUGCAAAAUAGAAGGAGCAUUGCACAUCAGUGAUGUUGAUGUCAGGACCGGGACUAGGGUGU [KL-SSTryp-B5 Brourdwalk1]	439 nM
GGAUCCACCAGUGAUGUUGGAAAAUACUCCAAGGAUAUGACGAAAGUCAGAAGGUGGUAGACUGGACAAAGUCCAGUCGGAUCCA [FmnA 27 #SwitchBubble #K4Early]	504 nM
GGGAGCAAAGCUCCCGGAUGCUAUUACCAGUAGGAUAUCUGGAAACAGAGAAGGGCUAAGCCAGUGAUGUUGGUUUCGAGCAUCC	514 nM
AACGUUUUGAGAAGGAGCGCGUUAAGCAGUGAUGUUGCUUUAUUAUAUUUACUACAUAUUUCGCAGGUAGGUCGCUCAAUACGUA [JR_Nu_SSArginiB_Sub025]	123 nM
CGUAGCAGACGAAGGAGCGGCUACCUGAUUCAAGGUGAUGCUUGAGUGAUGUUCAGGUGUAGCCAGGUAGGUCGCGUCUGCUACG [Arg B Ex t9]	170 nM
AAUAUCUAGUAUAUUUUUAAUAAAACAGAUACCAGUGAUAAUAGACACCCUUGGCAGCUGGUCGAGUGAUGUUCGUUUAUAUUAA [JR_SSTheophyA_Sub006]	57.3 nM
CGCAAGCAGCCAGUGAUGUUGGCCGCCUUGCGAGGACCGGUACGGCCGCCACUCGAAGGCGGCUACUAGUAAACCGCCUAACGGA [KL-XTryp-A17]	184 nM
AAUGCAUAGUGAAGGAGCGCGAUUUGCAGUGAUGUUGCAAAUUUAAACAAUCUUAUCUUUUCGCAGGUAGGUCGCACUAUGCAUA [JR_Nu_SSArginiB_Sub021]	88.7 nM
UAACUCUUGCAGUGAUGUUGCAAGUAUGCUCAGGAUAUCAGGAAACUGAGAAGGGAGUUUCCUGAGCUUCUGCAAGAGCUCAGAA [KL-SSFMN-A6]	382 nM
AAGUGGGAACGGCCCAAUAAAGUGUUUGUCAAGGAUAUUAUUCACAUAAGAAGGUGACAGACCACCUCCGGAGUGAUGUUUUGGA [theeternabot_sameState_KL_FMN_A_42]	539 nM
AAAAUAAGCCAGUGAUGUUGGUAUGCAGAUACCAGCGACGAAAGUCGCCCUUGGCAGCUGUGGACGUACAAAAUAAGUACGUCCU	179 nM
GGUCGAGUGAUGUUCGAUGUAGUGCAUUCAGAGGAUAUAGGAUGGGCUAGAAGGCUGAAAGGUGCUUCGAGUGAUGUUCGAGGAU [Exclusion FMN A GF 3]	89 nM
UUGUUUGGUUGAGAGGUUGGGCGAGAUGAUACCAGUAGAUAAGAAUACCCUUGGCAGCAUAAGAAAGAUAUAGUGAUGUUGUAUA [SSTheophA.N]	478 nM
AAGCAGUUCUCAAAGAGUACUGCAGGACAGCAGGAUAUAGUGAUGUUGAGAAGGGCUGUCCCGUCUGCAUGAAACAUGCAGACGA [Simply curious]	688 nM
AAGCAGUCAGGAUCGAAGAUCCUGCAAUACCGAGGACCGGUACGGCCGCCACUCGGAGUGAUGUUCCGAAGACUGCAAAAUAAAA [#SwitchBubble 7]	152 nM
GGUAGCAUGGCGGCCGCCACUGAGGCCCUAUGCGAGUCCUCUACAACCUAGUGAUGUUAGGCGUCCAGGACCGGGCCAUGCUACC	93 nM
CGAUACGGAAAUACGUGUCUCUAUUCAGAAGGAGCGUGGUAGUACACAGGUAGGUCGCUGAAUUUUAAACUAGUGAUGUUAGUCU [JR_SSArginiA_Sub005]	259 nM
UAUCUAUGCUCGGCCGCCACUAGGACCGGGUAGUCUCUAGUGAUGUUAGUCUCUACGGCCGCCACUAGGACCGGGAGUGUAGAUA [KL-SSTryp-B16 #DoubleAptamer]	82.5 nM
CGCCGUAAGGCGGUCGCUCCCACUCCGGAAGGAGCGCCCGGAAGGGCAGGUAGGUCGCCGGAGUGAUGUUCCGGUGGAGGGACCG [#2 Exclusion - Arginine A Attempt #9 (Inspired by Omei)]	367 nM
UCGCCGCUCACGGCCGCCACUAAGCCCAAGACCAGAGAGUGAUGUUCUAUCCACGUUUCAAUUUUUAGGACCGGGUGAAAGGCGA [theeternabot_sameState_KL_Trp_B_14]	618 nM
UGUGUUGUUUUGAUGUUUGGUGUUGCAUGGCAGGAUAUCGUAGAGGCGAGAAGGGCUUGUGAGCGGUAUGAGUGAUGUUUGUAGG [bbgbmullin]	299 nM
